Test results: article PMC11519228, “Sugar alcohol degradation in Archaea: uptake and degradation of mannitol and sorbitol in Haloarcula hispanica” (Extremophiles, 2024)
Values belong to the molecule of their own block, whether it stands above or below them.

Legend:
[1] = target: ketohexokinase (KHK) from Haloarcula marismortui (Haloarcula marismortui); test: SEC; native molecular mass on a size exclusion column (superdex HiLoad 16/600 200 pg) calibrated with proteins from the HMW and LMW kits; purified His-tagged enzyme
[2] = substrate: Nc1ncnc2c1ncn2[C@@H]1O[C@H](COP(=O)(O)OP(=O)(O)OP(=O)(O)O)[C@@H](O)[C@H]1O; test: coupled pyruvate kinase / lactate dehydrogenase photometric assay, Michaelis-Menten fit; assay type: biochemical, Haloarcula hispanica; settings: 50 mM Tris-HCl, 1.5 M KCl, pH 7.5, 4 mM fructose-1-phosphate, 10 mM MgCl2, 37 °C
[3] = target: the molecule itself; test: SEC; native molecular mass on a size exclusion column (superdex HiLoad 16/600 200 pg) calibrated with proteins from the HMW and LMW kits; purified His-tagged enzyme
[4] = substrate: Nc1ncnc2c1ncn2[C@@H]1O[C@H](COP(=O)(O)OP(=O)(O)OP(=O)(O)O)[C@@H](O)[C@H]1O; test: coupled pyruvate kinase / lactate dehydrogenase photometric assay, Michaelis-Menten fit; assay type: biochemical, Haloarcula marismortui; settings: 100 mM Tris-HCl, 1.5 M KCl, pH 7.5, 20 mM fructose, 10 mM MgCl2, 37 °C
[5] = substrate: NC(=O)c1ccc[n+]([C@@H]2O[C@H](COP(=O)(O)OP(=O)(O)OC[C@H]3O[C@@H](n4cnc5c(N)ncnc54)[C@H](O)[C@@H]3O)[C@@H](O)[C@H]2O)c1; test: photometric NADH assay, Michaelis-Menten fit; assay type: biochemical, Haloarcula hispanica; settings: 50 mM Tris-HCl, 1.5 M KCl, 37 °C, varied: cofactor
[6] = substrate: OC[C@@H](O)[C@@H](O)[C@H](O)[C@@H](O)CO; test: photometric NADH assay, Michaelis-Menten fit; assay type: biochemical, Haloarcula hispanica; settings: 50 mM Tris-HCl, 1.5 M KCl, 37 °C
[7] = substrate: OC[C@@H](O)[C@@H](O)[C@H](O)[C@H](O)CO; test: photometric NADH assay, Michaelis-Menten fit; assay type: biochemical, Haloarcula hispanica; settings: 50 mM Tris-HCl, 1.5 M KCl, pH 7.5, 1 mM MnCl2, 1 mM NAD+, 37 °C

stoichiometry N [1]: 2
Molecule: ketohexokinase (KHK) from Haloarcula marismortui (enzyme)

B1: fructose-1-phosphate kinase (1-PFK) from Haloarcula hispanica (enzyme, UniProt G0HX83 1-302, looked up)
chain: MIVTVTYNPAVDQTIQFDEQMAPDRVMRADEAQFDAGGKGINAAQFLTAMDRPCVATGLLGGFTGSFIRETLQDDGVETAFVDVDGTTRLNTTAIAAAGEYKLNQAGPTVGESVVDALLEQVRAQSPDRVLIGGSLPPGLSPNAIDRIAAGGDWETIVDTGGDVLRELDAQYGLCKPNRAELGDATGADVSTVEGCADAADAFRDRGFDRVLASLGADGAVLVGDTGRLYAEALDINVVDTVGAGDALLSGVLSAWEAGADDETALRTGVAVSSQVVQRAGTAVPDLNDIGSLRDGVTVRQL
notes: fructose-1-phosphate kinase of Haloarcula hispanica, gene fruK (HAH_1077), amplified from genomic DNA; subunits of 31.2 kDa; The gene was cloned into pTA963 with 6 x CAC fused to its 5' end (N-terminal 6 x His tag); also called F1P kinase; fruK; not shown: His6, N-terminal, kept
Km [2]: 60 ± 4 µM
stoichiometry N [3]: 2

B2: KHK (Haloarcula marismortui ATCC 43049) (protein)
chain: MDEETRRAVATADEALPTSDALPDAIDTGRVVFGFDGYLDRVREVVADRIDPESHERLATLESFGDRIDRSVAADSSLSFEWLQQGSRTGGHTSHLARAFGGWSFDPVMVGMYGDPVHDAFETEFGEYELHSLGEPGVTDAVEFDDGKLMLTEIGDTMSLDWAELDTAFGHDRLAEKLDGASLLGTGYWSETPDLPTVFDGLRTLWDGIDDPPETVLVDPGDVRKLDADRLRAGREAIGRLDEVTDVVVTSNRAETGVLADAYAGDAERSFADDAEAVFEALEPTWFVGHGVEQSVVVTAAGTDSVAVPSVSDPELTTSSGDHFNAGLGLARIADLSPAAAVVVGNAVAGYFVRTADQPSLADVRAFVDEYLEKF
notes: full-length gene from genomic DNA, N-terminal 6xHis tag, expressed in Haloferax volcanii H1209 (pTA963)
Km [4]: 1290 ± 120 µM

B3: MtlDH (Haloarcula hispanica ATCC 33960) (protein)
chain: MRASTLTDVGEITVEERDRPDPADDEVLVQVGACSVCMTDYHMYHGTFAAETPLVLGHEGAGTVAEVGADVEGFAVGDRVAINPTVPCNACSYCKKGETHLCENNTSIGGAGDTILDGAFAEYVRVPAINVEDIGEMSFERAALAEPLACCVHGVEQTDIKPGDSVGIIGAGPIGLLLLQAFRNAGAAPIVVSELDDERRELAADLGADAVVDPNEEDPEEAICAAAGGPVDVGAEAIGLVPTIKQANAVTASGGSTLIFGVPDQEATMEISPFDVFFDEVDYRGSFSLTTEDFERAITLLRHERIDAETLITERIGLDDLPTAFERMGNAEGLKKVVVPGDSE
notes: full-length gene from genomic DNA, N-terminal 6xHis tag, expressed in Haloferax volcanii H1209 (pTA963), Ni-NTA and size exclusion
Km ([5]; pH 7.5, 1 mM MnCl2, 10 mM mannitol): 420 ± 30 µM
Km ([6]; pH 7.5, 1 mM MnCl2, 1 mM NAD+, sorbitol up to 100 mM): 27600 ± 2660 µM
Km [7]: 2600 ± 270 µM

B4: SorDH (Haloarcula hispanica ATCC 33960) (protein)
chain: MRTAVLVEPNEFELEDRPRPSPGPDDVLVAVRDVGICGSDVHYYEHGRIGDYVVEDPLVLGHESAGEVVEVGENVTHHEPGDRVALEPGVPCRRCAHCKRGDYHLCEEVTFMATPPHDGAFTEYVSWPADFAYTLPEAVSTAEGALCEPLSVGIHACRRGSVGTGDTVLITGAGPIGLMVLEAARAAGATDVILTDVVDEKLTFAEERGADLTVNVTETDLDAAVAEYTDGVGADVVVEASGAEPSIKSTIDVVRRGGTVVLVGLASEAEVPIDVLELIDNEVDVHGSFRYKNTYDAAVDLLADGEVDVEGIIDFESELEDIDDAFRRAMEPTVVKGMISLDS
notes: as for B3
Km ([5]; pH 7.5, 1 mM MnCl2, 15 mM sorbitol): 1200 ± 350 µM
Km ([6]; pH 7.5, 1 mM MnCl2, 2 mM NAD+): 14700 ± 7800 µM
